Data taken from patent US6649392 (US Dept. of Health and Human Services, dated 2003).

T1: RNase A (bovine pancreatic) (bovine, UniProt P61823 27-150)
T1 construct: also called bovine RNase A
T1 sequence (looked up): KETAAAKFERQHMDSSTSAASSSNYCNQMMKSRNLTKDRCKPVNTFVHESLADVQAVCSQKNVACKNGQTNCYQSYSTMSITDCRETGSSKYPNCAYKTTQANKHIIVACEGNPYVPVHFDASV

B1: placental ribonuclease inhibitor (other, UniProt P13489 2-461, looked up)
chain: SLDIQSLDIQCEELSDARWAELLPLLQQCQVVRLDDCGLTEARCKDISSALRVNPALAELNLRSNELGDVGVHCVLQGLQTPSCKIQKLSLQNCCLTGAGCGVLSSTLRTLPTLQELHLSDNLLGDAGLQLLCEGLLDPQCRLEKLQLEYCSLSAASCEPLASVLRAKPDFKELTVSNNDINEAGVRVLCQGLKDSPCQLEALKLESCGVTSDNCRDLCGIVASKASLRELALGSNKLGDVGMAELCPGLLHPSSRLRTLWIWECGITAKGCGDLCRVLRAKESLKELSLAGNELGDEGARLLCETLLEPGCQLESLWVKSCSFTAACCSHFSSVLAQNRFLLELQISNNRLEDAGVRELCQGLGQPGSVLRVLWLADCDVSDSSCSSLAATLLANHSLRELDLSNNCLGDAGILQLVESVRQPGCLLEQLVLYDIYWSEEMEDRLQALEKDKPSLRVIS
notes: also called PRI
B2: recombinant Met(-1) human pancreatic ribonuclease (enzyme)
chain: MKESRAKKFQRQHMDSDSSPSSSSTYCNQMMRRRNMTQGRCKPVNTFVHEPLVDVQNVCFQEKVTCKNGQGNCYKSNSSMHITDCRLTNGSRYPNCAYRTSPKERHIIVACEGSPYVPVHFDASVEDST
notes: mature; also called rhRNase; hRNase
B3: native Onc purified from the eggs of Rana pipiens (enzyme, UniProt P22069 1-104, looked up)
chain: QDWLTFQKKHITNTRDVDCDNIMSTNLFHCKDKNTFIYSRPEPVKAICKGIIASKNVLTTSEFYLSDCNVTSRPCKYKLKKSTNKFCVTCENQAPVHFVGVGSC
modifications: pyroglutamyl residue at position 1 (amino terminus)
notes: mature; also called nOnc; ONCONASE

Legend:
[1] = biological target: rOnc1-9-hRNase12-127 hybrid (Rana pipiens; human) (UniProt P07998); assay: steady-state inhibition of RNase activity by PRI
[2] = biological target: rhRNase1-11-rOnc10-104 hybrid (human; Rana pipiens) (UniProt P07998); assay: approximate Ki from I50, inhibition of RNase activity by PRI
[3] = biological target: T1, RNase A (bovine pancreatic); assay: steady-state tight-binding inhibition of RNase activity (CpA substrate, spectrophotometric); row RNaseA
Method: (§1) Steady-state inhibition constants (K_i) for PRI interaction were determined using a modification of a method (Vincentini et al., Biochemistry 29:8827–8834 (1990)) to analyse competitive slow tight-binding inhibition mechanisms. Steady-state rates of product formation were calculated by a spectrophotometric method. […] The reaction was started by the addition of enzyme (0.01 to 2 nM depending on the assayed protein) and followed during 90–120 min. Several inhibitor concentrations were distributed below and above the enzyme concentration. […] The amount of product formed was calculated by following the absorbance decrease at 286 nm for CpA (change in ε=521 M^-1) and at 280 nm for UpG (change in ε=757 M^-1 cm^-1). The calculated steady-state rates for each inhibitor concentration were fitted by nonlinear regression to the equation for tight binding inhibition as described by Vicentini et al. (1990). In each case $I50$, defined as the total inhibitor concentration required to give 50% inhibition, were deduced from the V_s-I Dixon plot and compared to the calculated K_i, considering in each case the total enzyme concentration.
(§2) [a]K_i values were calculated from the observed steady-state rates (v_s) at different inhibitor concentrations, by fitting the data to the tight-binding non-linear regression equation.

[4] = biological target: B3; assay: approximate Ki calculated from I50, inhibition of RNase activity (UpG substrate, spectrophotometric); row nOnc
Method: as §1, §2

[5] = biological target: rOnc1-9-hRNase12-127 hybrid (Rana pipiens; human) (UniProt P07998); assay: steady-state tight-binding inhibition of RNase activity (CpA substrate, spectrophotometric); row rOnc1-9-hRNase12-127
[6] = biological target: rhRNase1-11-rOnc10-104 hybrid (human; Rana pipiens) (UniProt P07998); assay: approximate Ki calculated from I50, inhibition of RNase activity (UpG substrate, spectrophotometric); row rhRNase1-11-Onc10-104
[7] = biological target: B2; assay: steady-state tight-binding inhibition of RNase activity (CpA substrate, spectrophotometric); row rhRNase
Method: as §1, §2

[8] = biological target: B1; assay: steady-state inhibition of RNase activity by PRI
Method: as §1, §2

Row | fold increase of Ki in relation to rhRNase [1] | fold increase of PRI affinity in relation to Onc [2] | Ki [3] | Ki [4] | Ki [5] | Ki [6] | Ki [7] | binding result [8] | Binder
1 | 30 fold | 3 fold | 0.058 pM | ≥ 100000 nM | 0.0056 nM | > 400 nM | 0.0002 nM |  | B1
2 |  |  |  |  |  |  |  | binds | B2
3 |  |  |  |  |  |  |  | binds | B3
